Laboratory results reported in the supplement of paper PMC6757056.
± gives the standard deviation of the averaged measurements.

B1: library; a variant is named by its letters at N, in order (parent)
chain: GCUGUCACCGGUGCUUGGUACGUUAUAUUCAGCCGGUCUGAUGAGUCUNNNNNNAGACGAAACAGC

How the values were obtained:
[1] = variants of: B1; assay: normalized RNA/DNA level without ligand (relative to sTRSVctl = 100) (log10 (% of sTRSVctl)); HEK293T overexpressing SLC46A1; higher = less ribozyme self-cleavage, higher mRNA level; details: without (6R,S)-folinic acid; ligand present: no
Outline: (§1)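 Ribozyme switch library plasmids linked to reporters were introduced into HEK293T cells at 4 µg per 6-well well, with ligand, if any, added 1 h before. Total RNA was extracted with EDTA 72 h later, reverse-transcribed, amplified, barcoded and sequenced. RNA level was computed from RNA over DNA reads relative to a spiked-in non-cleaving sequence or the top sequences, then scaled and log-transformed. The top set was 25 sequences, values were ×100 and log10, and the cutoff was ≥100 DNA reads.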

[2] = variants of: B1; assay: normalized RNA/DNA level with ligand (relative to sTRSVctl = 100) (log10 (% of sTRSVctl)); HEK293T overexpressing SLC46A1; ligand concentration (+) RNA-Seq: 6 mM; higher = less ribozyme self-cleavage, higher mRNA level; details: with (6R,S)-folinic acid; ligand present: yes
Outline: as §1

| Variant | normalized RNA/DNA level without ligand (log10) [1] | normalized RNA/DNA level with ligand (log10) [2] |
| --- | --- | --- |
| CAUGCU | 2.051 ± 0.019 | 2.05 ± 0.064 |
| CAUGCC | 2.058 ± 0.0046 | 2.029 ± 0.014 |
| CAUGCG | 2.01 ± 0.019 | 2.01 ± 0.032 |
| CAUAAG | 1.95 ± 0.035 | 2.03 ± 0.035 |
| AAUCUG | 1.958 ± 0.0061 | 2.04 ± 0.048 |
| AAUCUC | 2.068 ± 0.011 | 2.04 ± 0.034 |
| UAUAGU | 1.874 ± 0.014 | 1.97 ± 0.041 |
| GAGGCG | 2.003 ± 0.014 | 2.05 ± 0.055 |
| GAGGCU | 2.073 ± 0.0028 | 2.04 ± 0.022 |
| GAGGCC | 2.041 ± 0.0098 | 2.044 ± 0.012 |
| GAUGGG | 1.941 ± 0.0096 | 2.043 ± 0.019 |
| GAUGGA | 1.987 ± 0.0081 | 2.02 ± 0.043 |
| GAGUUC | 2.013 ± 0.02 | 2.025 ± 0.014 |
| GAGUUU | 2 ± 0.02 | 2.01 ± 0.037 |
| GAGUUA | 2.008 ± 0.0034 | 2.03 ± 0.022 |
| GAUCCA | 2.034 ± 0.0061 | 2.02 ± 0.039 |
| GAUCCU | 2.066 ± 0.02 | 2.06 ± 0.053 |
| GAUCCG | 2.0564 ± 0.0019 | 2.05 ± 0.063 |
| GAUCCC | 2.06 ± 0.033 | 2.0517 ± 0.00022 |
| UAUCGC | 2.014 ± 0.0075 | 2.03 ± 0.043 |

| Variant | normalized RNA/DNA level without ligand (log10) [1] | normalized RNA/DNA level with ligand (log10) [2] |
| --- | --- | --- |
| UAUCGU | 1.947 ± 0.0084 | 2.01 ± 0.038 |
| UAUCGA | 1.927 ± 0.0098 | 2 ± 0.028 |
| CAUAUA | 1.954 ± 0.019 | 1.97 ± 0.036 |
| CAGGAU | 1.9357 ± 0.0006 | 1.97 ± 0.049 |
| CAGGAG | 1.92 ± 0.022 | 2.03 ± 0.03 |
| CAGGAA | 1.928 ± 0.0064 | 1.99 ± 0.05 |
| GAGCCC | 2.023 ± 0.013 | 2.02 ± 0.053 |
| UAUAAC | 1.98 ± 0.0056 | 2 ± 0.029 |
| UAUGGU | 1.8765 ± 0.0006 | 1.98 ± 0.026 |
| GAGGGG | 2.007 ± 0.018 | 2.04 ± 0.051 |
| GAGGGC | 1.956 ± 0.011 | 2.04 ± 0.042 |
| GAUACU | 2.001 ± 0.0036 | 2.01 ± 0.036 |
| GAUACC | 2.003 ± 0.0086 | 2.026 ± 0.0083 |
| GAUGCC | 2.014 ± 0.0064 | 2.023 ± 0.013 |
| GAUGCU | 1.992 ± 0.0031 | 2 ± 0.039 |
| UAGGCC | 2.047 ± 0.004 | 2.04 ± 0.044 |
| UAGGCG | 1.762 ± 0.0037 | 1.97 ± 0.032 |
| UAGGCU | 2.03 ± 0.024 | 2.05 ± 0.061 |
| UAGGCA | 1.972 ± 0.00036 | 2.027 ± 0.02 |
| GAGCAA | 1.96 ± 0.025 | 2 ± 0.049 |

| Variant | normalized RNA/DNA level without ligand (log10) [1] | normalized RNA/DNA level with ligand (log10) [2] |
| --- | --- | --- |
| GAGUCG | 1.984 ± 0.019 | 2 ± 0.034 |
| GAGUCU | 2.0246 ± 0.001 | 2.02 ± 0.027 |
| CAGGGG | 1.87 ± 0.049 | 1.996 ± 0.016 |
| CAGGGC | 1.994 ± 0.013 | 2.03 ± 0.046 |
| CAGGGA | 1.962 ± 0.005 | 2 ± 0.029 |
| CAGGGU | 1.974 ± 0.014 | 2 ± 0.031 |
| CAUCCC | 2.063 ± 0.0042 | 2.041 ± 0.011 |
| CAUCCU | 2.06 ± 0.013 | 2.08 ± 0.058 |
| CAUCCA | 2.028 ± 0.006 | 1.99 ± 0.036 |
| CAUCCG | 2.083 ± 0.013 | 2.05 ± 0.028 |
| AAUACG | 1.934 ± 0.0037 | 1.99 ± 0.056 |
| AAUACA | 1.998 ± 0.014 | 1.995 ± 0.015 |
| AAUGUA | 1.9489 ± 1.8e-05 | 2.01 ± 0.04 |
| AAGUAC | 2.02 ± 0.024 | 2.03 ± 0.039 |
| AAGUAU | 1.959 ± 0.011 | 2.02 ± 0.03 |
| GAGCGU | 1.982 ± 0.0095 | 2 ± 0.048 |
| GAGCGC | 2.002 ± 0.017 | 2.03 ± 0.054 |
| GAGCGG | 1.982 ± 0.011 | 2.06 ± 0.031 |
